This is an account of results in publication PMC8529273.

pKd: −log10 of the molar value.

The assay concerns the target human ACE-2, Fc-tagged (human) (UniProt Q9BYF1). As to the kind of experiment: BLI.

Take “SARS-CoV-2 B.1.351 RBD (K417N_E484K_N501Y) (domain or fragment)”: the pKd was 8.11.

The substance “SARS-CoV-2 P.1 RBD (K417T_E484K_N501Y) (domain or fragment)” gave a pKd of 8.25.

For the substance “SARS-CoV-2 RBD E484K (domain or fragment)”, the pKd was 7.81, the koff amounted to 0.00677 s⁻¹ and the kon amounted to 433000 M⁻¹ s⁻¹.

In turn, “SARS-CoV-2 RBD K417N (domain or fragment)” gave a pKd of 7.11 and a koff of 0.0162 s⁻¹.

In turn, “SARS-CoV-2 RBD K417T (domain or fragment)” showed a pKd of 7.25 and a koff of 0.0129 s⁻¹.

Substance “SARS-CoV-2 receptor-binding domain (RBD) wild type (Wuhan strain) (domain or fragment)” showed a pKd of 7.62, a koff of 0.00755 s⁻¹ and a kon of 315000 M⁻¹ s⁻¹.

For orientation: pKd means the negative decadic logarithm of the Kd, by convention in mol/L. The low end stands for a large Kd, the high end for a small Kd. As usually defined, the koff is a measure of how fast the partners let go of each other. A higher koff goes with fast dissociation. For orientation: kon means the rate constant with which the complex forms.
